This passage reports Km results from PMC3115949.

In general, Km refers to the concentration of substrate that gives half-maximal velocity.

Substrate in the data set: O=P(O)(O)O
The experiment in a line: cells, lysate or membranes. Particulars: labelled compound, whole yeast cells, 5 min, 30 °C, glucose-energized, Pi 50-2000 µM, proton symport, pH of Km assay not stated.

B1: GmPT2 (Glycine max) (protein)
chain: MAGGQLGVLNALDVAKTQWYHFTAIVIAGMGFFTDAYDLFCISLVTKLLGRLYYTDITNPKPGVLPPNVQAAVTGVALCGTLAGQLFFGWLGDKLGRKRVYGLTLMLMVVCSVASGLSFGDTPKGVMATLCFFRFWLGFGIGGDYPLSATIMSEYANKKTRGAFIAAVFAMQGFGILAGGIVALIVSSAYDHKYDLPSYKDNPAGSKVDSLDYVWRIILMFGAVPAGLTYYWRMKMPETARYTALVAKNAKQAASDMSKVLQVEVEAEEDKLQHMVESEHQKYGLFSKEFAKRHGLHLVGTTVTWFLLDIAFYSQNLFQKDIFSAIGWIPPAQDMNAIHEVYRIARAQTLIALCSTVPGYWFTVAFIDIMGRFAIQLMGFFFMTVFMFALAIPYNHWKNHNNIGFVVMYSFTFFFSNFGPNATTFVVPAEIFPARLRSTCHGISAAAGKAGAIVGAFGFLYAAQSTNPDKVDHGYPTGIGVKNSLIVLGVINFFGMVFTLLVPESKGKSLEELSGENEDDGAEAIEMAGSARTVPV
With B1, the Michaelis-Menten constant (Km) was 6.63 mM.

B2: GmPT1 (Glycine max) (protein)
chain: MAGGQLGVLNALDVAKTQWYHFTAIVIAGMGFFTDAYDLFCISLVTKLLGRLYYTDIRNPKPGVLPPNVQAAVTGVALCGTLAGQLFFGWLGDKLGRKRVYGLTLMLMVLCSIASGLSFGDTPKGVMATLCFFRFWLDFGIGGDYPLSATIMSEYANKKTRGSFIAAVFAMQGFGIMAGGIVALIVSSAYDHKYDLPSYKDNPAGSKVDSLDYVWRIILMFGAVPAALTYYWRMKMPETARYTALVAKNAKQAASDMSKVLQVEVEAEEDKLQHMVESENQKYGLFSKEFAKRHGLHLVGTTVTWFLLDIAFYSQNLFQKDIFTAIGWIPPAQDMNAIHEVYRIARAQTLIALCSTVPGYWFTVAFIDIIGRFAIQLMGFFFMTVFMFALAIPYNHWKNHNNIGFVVMYSFTFFFSNFGPNATTFVVPAEIFPARLRSTCHGISAAAGKAGAIVGAFGFLYAAQSTNPNKVDHGYPTGIGVKNSLIVLGVINFFGMVFTLLVPESKGKSLEELSGENEDDGAEAIEMAGSARTVPV
Take B2: the Km is 6.65 mM.
